assay: protease stability score; higher = more stable; yeast display proteolysis, trypsin and chymotrypsin;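 note: relative to predicted unfolded state with 0 unfolded-like and 1 meaning tenfold more protease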

| Sequence | protease stability score |
| --- | --- |
| DEVEKIVYDFLQRHIEHLLTGDEDSFTHNLDPHVRIHIDGQRLIGREDARREVRRLGFDHVEITKIEHQGEKLIVHGTMIINGQEIHLTIYIWKINGRWVVQSIEIK | 0.706 |
| SEEEEKRRKSAEDFMRSLVTGDEDDLSRLADPHVRLDINGKEHHGMEEFKRLLSEFWEEMGIKHVRIRRIDIQGNKAILHTEVDWNGRIHEVTIDVQTYNGRIKSVKVIIH | 1.24 |
| EEEERILFEEMEHLLHNFLTGNEEHLHELIDPRVRILIGDKDIHGMELHANIWKKVKGIKEEYHVHRVKLYNGRNEMDTEVRRVIDGQELSVRTKIIFDVVDGKLKSAEIRFH | 0.771 |
| SEEEHDAHIALKIWLDNLFTGDEEKLKEMMDPNVRMDFDGRHIHGREAIEMLLRRVDHWHHIEVRLEHLRIIGDKVILHIRQVEHIQIGDKHDRVHSNITLVFLKFDGKWFIREIRIK | 2.78 |
| DEDEKTAEETLNEFIRSLLTGDEDNLKHLLDPNTRFHINGQDIHGWEVYYEMFRQWRVTHVRLEVKDFRIFNGRLDADGHLRMHGTINGKNRDTSSILHMHSVKVNGRWVLTEVRVE | 1.78 |
| SEDEKNVDEFMERMTRLTETGDEDNLRHLMDPNVYLHQGDKVHHGREDVVKAIREIIDNLGVTQVKAEVHSFEVIGDKMDLRGTLEFNGVRWRRHIDIHKVDGRWHLQFVHIE | 0.251 |
| THDEEVIEIMMDHLREQIHTGDFTSLLEQLDPHARSDVDGREFHGREIVAHVWFHLRVKHVRIDHVDIVNGKIRVDSWIQGRINGRETEYEVILRAHKVDGRWRVHSYEIR | 1.72 |
| DEAEEHMRRYSELMMKSFLTGDEHTLRKLADPHTKLIFNGKELHGREEVARVFTWSREELGVDHQDVRHVSVRLVDGRVHVDIILEVNVGDKRFQVHIHLTILKYDGRWFVESVHIEIR | 0.285 |
| SEQEEYLKEYAKHFYEFLLTGDEDWLKRLFDPEARLTVEVGDKTEHLHGREEVSKFWKHLLTEMRIEMTLKDLDSQGEFIVSVTELNINIDGKTIHTRMEIILVVVNGRLREVELRIK | 2.3 |
| DEHEELMEEFMRKILHAWLTGDWDLINEMADPDVRTNINGRNEIGREEFEKLWQEIRFRRFDLKRWHVFNGVIHIDGHIDGEVNGRRTKRDVLIRLFIFNGRLKKEEVEYL | 1.55 |
| DEEEEKLKKWADDTIQLLRTGDEEDLYKMLDPHARTEVNGRELHGREEMFKVLKTIWDKVKGIKFLHRDHRLYNGRVEIHGELVIGDKIHKVHIIVLIINGKIKEVEIHIH | 1.39 |
| DKEDEERKRWEERMLQAITTGDEKTLEDLIDPNARYEINGRERHGREDLLKEFSKIKNVRIELRIHHVRFYDGQLEIDLRLILHIDGVDLRHETRIHAQKYDGVWYIKDITFH | 1.02 |
| HELKEELDEKLEFILRVFRTGNEERWRRLFDPEVRIEVGDKEIHGMDEALHFASHMRVEFKEMNFEDIRIVGEWVTLHIRVRGTIVYNGKKVERSMHIIIIILKIDGKWHIHEFRIH | 1.44 |
| DERDREVHLASELLHRIVRTGNEEVFEDYLDPNVRVRVNGVESWGMDSFKHWLKEIRIHSHEVDHFDVIGDKLHFDTRVDGEFDGRRDIYKSEVHAEKINGRWIFKIVIFR | 1.19 |
| DERERDARIYFHLLLHVIMTGNEEDLERFMDPHARIQIGDKMVHGRENVYHELLRIAREMRLHHSHIHEIRVIDGRVILKGHLDLEVGDKRELVDVEWIVIKVNGKWIFHSVHFR | 2.53 |
| HEDEELSEWMEREMIDIMRTGDEHRFLRMADPNTRFEFNGKDIHGRERVLDVLEFLGIDHMEFEDSKVRLYDGRVEVRLEGRINVGDKQSESRITIKAEKINGRWVLHEVSIEHH | 0.821 |
| DEDHKFAVEILRRLMEIWFTGNEEELKHLADPDYRLRVRINGKEITRHGMEQSREQIKRWIDRIDHYEIRIRHLEWQGDKSHSHTELHMRFDGVIKKFETRIIVIVIDGKVSEIIIEIN | 1.61 |
| DEIERLLKEVMRIFYENFQTGDEESLKELADPNVRYQIGDKSDHGREHLWRVQHEVHRRMGIKHTHLLIKSVEIVDGVAVIHGSLRLDFDGRHIEWHLHLRLKLIDGKIKEVEHELV | 1.36 |
| DEEEKLVRYLRELMKKAWLTGDEDYIRKLMDPDTWFIYGDKHWHGMEEVTKAFEYLLHHLRIEHSIDRHVSIIGNKVHIDGEVDVTIGEKRDRRRQEIILIIVDGRIKTIEFHER | 0.942 |
| DEDKEIAEHNLRLLSHSRLTGDEESMHKLMDPNAKIDFNGREIHGMEWIEWLKNQLRLKHVHTEFKDSRIINGRMEVDVNLRLHLSINGKEVDFIIDVELISQKVDGRWIVRSEIYR | 0.375 |
| EEDDKFSELAFNMLVESFKTGDEQHWRELADPRVKYQIDGRDLIGWTAFRRFLNEFGIDHMHIKLHDHRDYNGQVELDETLEIRYGDKTEHIKVTTIVHKINGQWIVKSFSVH | 0.682 |
| SEEDRYDKKMLERLNEAEHTGDWRLFLRQADPDPRTVIGDKELHGWEILEEFLLKIHEQYKGMRFEYRDIDVQGDKIRIEYDLFINGKFTETILIADKVNGKWIIKSHELR | 0.898 |
| TEDEEKSHEFVHRLSHSVMTGDWKDIKRLADPNMKSRVNGREIHGWDKTKRMLDEEEEQLGVSRFEFDLKRVDTQGDKLFIDMRMKVNGRTLEVTYHVEKVNGRWLVTEFHIL | 0.555 |
| DEENDLMLEMAFKFMHDWLTGDFDKETKLADPDVKYDVGEFRFHGREEVTKWLEDMERSLGIDHQFLNIHDLKVQGDKVHIKGELVLIVNGRKETRRVDLHFEIVDGRMRKVTIEKR | 1 |
| DEDEEKVEHISKEYFRSFVTGDEDKLRKLLDPNARVYFNGQTVIGRELATKIVLELRNRQVEVDHLHIEYQGDKARLHQITTIDGHINGRDEWFEFHIEVHLRKVNGKWVIQRSEFEIR | 0.252 |

| Sequence | protease stability score |
| --- | --- |
| DDDERALEEAIRIIKEVFKTGDERLHEELFDPNYLLIINGVFYHGREVMRNFHRHWRIRHVEFRRTRVINGRIEMDVHIITDINGQEIRHDSHIYAHKIDGRWIFRSVEHH | 1.63 |
| DEDEETITRTLEFQRESLRTGDWKFIHRLFDPDARFLINGRDRHGRDLLIDILRKLGVEKINLHVHRMSYVGDKMRVETELVVGDFIFDTRLFEEKVNGKWLMRSMEIH | 0.735 |
| KEHEKFVEDFARLLINIWTTGDEDLFNELADPHVRVNFNGVEHHGRENVIRYIERVLREIRIDHVQTRDWTVIDGVMHIEGHIHIHFDGRQRTHDVIFHIIIWNGKMKNVIVSFR | 1.67 |
| SEEEREIREIMKRFVQSFYTGDEHSLKKLLDPNVRHEFNGKEEHGWHRVWEDLAFFLRHIRIKHVVLRDVRVQGDKVHAHVEIHEEWDGRERDVEVHMRLEIVDGVVKSVKIEIQ | 1.43 |
| SEEEKHVTSMMELWIHYIITGDEEFFLKLADPHTRFEIGDYENHGRDAVKWHRDHLGLDNVHSRIHIKELRAVGDKVHSHTHLVIHIGDKTIRMDTKVHIVYINGRITSIIVEIS | 1.31 |
| SEEEEESRRFMQHMSRSLATGDWRQVRNLLDPHVRTDINGRDLHGWRDYVRHVLELGIKHIHIEDIRLVGDYAHIDGEMDVNGRDVRVHILVLKINGRWVIESEELK | 0.427 |
| SEIEEELSSDRRDFIRAVLTGDFERHIEQMDPNVKLIFNGKEFHGREEVHRSWEELIDRWGVDKFEYRIEDMEHFPGHLMIHGTLNYNGKRERVIIYAVKFNGRWRVERVEIK | 1.55 |
| SEDERLMKKLWEDLIRDLITGDEDSMKRLADPNVLVEFENHKEHGRDLFSHLMFHARIKRIHTHEVEIQGDKAVYNVRIDGEINGQRHDYEREIYSFKVNGQWFIERVIIK | 1.4 |
| DDEEKRYRLFYKIALTMFETGDWQILHELADPHVKVRVGDKDLHGREELTHFWKELVERYPNMKIRLDDLSLQGEKIHIEGTWHFDGKELTTHIDLIMVDGKLKETRYEHK | 1.4 |
| SDELEEALKWLEELMRLTLTGNWDRLDELVDPNAKEVINGKELHGMHFFRRVLHEIRFTHIDVQDIRLQGNYVEVDLRVEGNIDGRHVDLHTEVILLKVNGRWLHKMRILR | 1.56 |
| DDHDKLLQKLMRFWLWAFLTGDEDHFDEMADPNTRLSSIVNGRDIQLHGREQVNKHFKELRLHHFILRTWSVYDGRVEIDGQMDGEYDGRRIDTRVTIIIVIINGRSTREHLDFK | 0.261 |
| SEEERDAEENIRLYEELWRTGDFDIFKHLADPNVRLHINGRDVHGRENVSRLISEWRDEDIILRHFTVIDGRIEVHSEFHGQVDGQRRNTRIHIHLRKINGQWRLTEVKYE | 1.12 |
| SEEEELDRRITDLIVHARKTGDEEMWQRYADPHVRLFWFQGDYLLMIVGREDASKWMRHLLEELGIKHIEFKHIDIFDGRSHIDSRVKVNGKERETRHQFVVVNGRITEVREKID | 0.415 |
| DEESEKVEHFLEELFRAMETGDEDQFRKLMDPNVRASYGDKEVHGRNDILHWIREYRERVKNLKLEVHRVRVRIYNGRVEIEMDTILRINGKEHKVTLTFDVTKVNGRWFIEHVEVEVR | 1.37 |
| SEEEDLHRHIMRLFLEWVLTGDEEDLYHFADPHTQFRYGDYELHGMEKIVEEILRFTHELRITHFTIHQMDVFNGKAESDVEWHKDVNGQEVRFRLKLILIVINGRTKSIEIRHK | 1.23 |
| DETTKLVEEVTRLLERAWETGDEETIYQLLDPNVKWNINGVDFHGMEHLAREIIHELRRHGFRVRFRLHHIDIQGDKARVESIEHIHIGNKHIHRRTYLFLSKVNGVWSIQEQRVE | 1.44 |
| DEIERESRKFFELWVHWYRTGNFEEIHKNLDPNARIEINGREIHGREDVLRLLEEIAKQFDHIEVELKDMHVQGDKMTIEGIIIFHFNGKRVEIHMIHIVLKINGQWFEHSQEYN | 0.626 |
| DEDEKIARDQLEHFFHSVQTGNEDELRRLLDPNTYIDINGRTYHGREEVVKWMVHWFEHARLRRVHIRHSRSIGDKIILDTKMNVDINGVERHLDVNVIYLKVDGKWINHSEIVK | 1.56 |
| DELTEVADYLLEHFIRNLITGNEERVRHLADPHVRVIEVYGDKVEMRHGRDSMLKWMHDWRHHIRLKHYQIEHIEVQGEKSVVHGRLRGNIDGRDIDTRTHIEVVHIDGRFTSMRYEVR | 0.555 |
| DEEEEDAHRLMHNVVHALRTGDWEEFSRLLDPNVMVIIGDKLFIGRETVLEMIKRMLDDWGVTRIHLHIHSKHVQGNKLHVDSQIDVNGRTTRVHIDATKIDGRWLLKRIEIK | 2.14 |
| DEEERIAKVMLKIVEKDLHTGNFETLFHLMDPHMRLEYGDKHHHGREEAYRELLEIWEELGANHYHITHRHVRLIGDKIRIHIYSIVRFNGREHHLHIDLIVTKIDGRWVMHRIIIELK | 0.723 |
| SEHKELVEHITKLSWELLKTGDEEILLHLADPDMKVEVGDKEMHGREEWARFLIETLRRVKNLRVDLHRVHIQGEKAHVDGTIFIDGVEFTDQLNFVVINGRIKHINIIDR | 1.46 |
| SEREEEMKHLHKNLVHNLFTGDEDSHKKLADPNARSVFDGRDFIGMDWWSRYYRHVFERFKGLRLENHHIHFQGNYLHIEARSYIGDKEEIWHFDYFMFDGKVHEVRMEVTKR | 0.813 |
| SEEDELMEEWRRLFIHSFLTGNEDELHRLIDPNARFIINGVNLHGWKALETKLRELGAKHIEVRERHEHRQGNKLELHVHIIIHQGDKDLREDVRIENEKVNGRWVVRTIEEK | 1.07 |
| SEDEELVRKATEDFINMHRTGDEDELRKMMDPDDKLRIGDKEVIGREAVITWLMEWLKKMGVNHIRFHRVHLFDGKIHVDGELHIGDKEFEIHIFALKINGRWIRESEEIK | 1.39 |

Source: the NTF2 design screens of Basanta et al. (2020)
